These results are taken from the supplement of paper PMC10724198.

± gives the standard deviation of the averaged measurements.
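Further: PSI is a weighted mean of sequencing reads over stability bins, variants kept only with over 10 reads, mCherry proximal and sfGFP distal, peptide attached via GGGS linker.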

The test system of the series is Saccharomyces cerevisiae. The series can be described thus: protein stability index of tFT-peptide fusion (C-terminal peptide) (PSI (0-1 scale)); higher = more stable (slower turnover). The note with it: genetic background: wild type; temperature: 30 C. The protocol:
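Multiplexed protein stability (MPS) profiling in S. cerevisiae. Random 12-aa peptides (tFT-X12 library) are fused to the C-terminus of a sfGFP-mCherry tandem fluorescent timer, after mCherry and a GGGS linker. Cells are FACS-sorted into 8 mCherry/sfGFP bins and deep-sequenced. The protein stability index (PSI) is the read-weighted bin average, scaled from 0 (unstable) to 1 (stable). Only peptides with >10 reads are reported; cells were grown at 30 °C in SC-His with glucose.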
Sequence CVDSRRCCSCFC displayed a protein stability index of 0.59 ± 0.074.

In turn, CVDTNIERSCVC displayed a protein stability index of 0.66182 ± 0.00042.

For the sequence CVGCVVGAGVTS, the protein stability index is 0.684 ± 0.049.

CVGPGGACVRSG registered a protein stability index of 0.6894 ± 0.0017.

For CVGSVEVGHSGI, the protein stability index turned out to be 0.702 ± 0.02.

CVKKERCDSCRV returned a protein stability index of 0.715 ± 0.07.

On to CVLFSGLSVDGC, for which the protein stability index stood at 0.7215 ± 0.004.

CVLFYPLLLPGV displayed a protein stability index of 0.599 ± 0.035.

CVPLPCLPLPPS: the protein stability index turned out to be 0.66 ± 0.012.

As to CVPLPPVLPRSC, the protein stability index came to 0.6607 ± 0.0018.

Sequence CVPLSAIFSAFT showed a protein stability index of 0.77 ± 0.022.

Consider CVSYLVIFDRRY, for which the protein stability index turned out to be 0.6742 ± 0.0043.

Regarding CVTFHKGRVFLR, the protein stability index was 0.609 ± 0.031.

In the case of CWQMTWSEGLGN, the protein stability index worked out at 0.687 ± 0.038.

As for CWRVGRERRGAG, the protein stability index was found to be 0.604 ± 0.013.

Consider CWYRCLLSCLVL, for which the protein stability index came to 0.656 ± 0.033.

Turning to CYFKTIYRNMEY, the protein stability index was found to be 0.541 ± 0.032.

On to CYHIAHPSAYVP, for which the protein stability index amounted to 0.679 ± 0.041.

CYTGMIRSTPLS gave a protein stability index of 0.702 ± 0.064.

As to CYVCVDVCKRGC, the protein stability index came to 0.535 ± 0.18.

Sequence DACIVRFRDTYL gave a protein stability index of 0.688 ± 0.018.

Consider DANRSPEYSLNG, for which the protein stability index worked out at 0.7169 ± 0.0062.

DCGYPESTGTAF: the protein stability index came to 0.656 ± 0.036.

With DCPHGDSPRVVS, the protein stability index amounted to 0.628 ± 0.046.

Regarding DDSFNPWSVRVH, the protein stability index was found to be 0.7154 ± 0.006.

With DDSQKLTNNNEG, the protein stability index came out at 0.744 ± 0.013.

DEFRVALGSVTC showed a protein stability index of 0.65 ± 0.12.

DEGLLPLPAVIP showed a protein stability index of 0.746 ± 0.04.

DERLEIKERLEF came in with a protein stability index of 0.739 ± 0.071.

Regarding DERTTLMRGNNV, the protein stability index is 0.651 ± 0.017.

In the case of DFAGVCRWSLRG, the protein stability index is 0.6446 ± 0.0025.

In turn, DFPPRPTPLSSL registered a protein stability index of 0.658 ± 0.033.

As to DFWSEFILLCSV, the protein stability index is 0.6019 ± 0.0039.

On to DGAAGTGGAMGF, for which the protein stability index was 0.669 ± 0.068.

Consider DGAVRLGGGGLG, for which the protein stability index was determined as 0.664 ± 0.05.

As for DGCRFEFVPSGD, the protein stability index stood at 0.629 ± 0.023.

DGDIIVVQINKL yielded a protein stability index of 0.6471 ± 0.0039.

Regarding DGECVLGVFVGA, the protein stability index was determined as 0.706 ± 0.045.

In turn, DGGFAAPDVIGA gave a protein stability index of 0.682 ± 0.026.

As for DGGSEIWGWDGT, the protein stability index was 0.743 ± 0.12.

DGHSMFNRLIRS showed a protein stability index of 0.64232 ± 0.00017.

As to DGKAGRKGFWRK, the protein stability index came out at 0.746 ± 0.023.

As for DGNDSILTKLPL, the protein stability index turned out to be 0.714 ± 0.021.

DGRYVDSEIDNP had a protein stability index of 0.714 ± 0.059.

In the case of DGSRSFSYSTAG, the protein stability index came to 0.642 ± 0.1.

Take DGVATLYGRDVE: the protein stability index came out at 0.646 ± 0.033.

The sequence DGVIVACWCRRS returned a protein stability index of 0.66 ± 0.021.

In the case of DGVRGWVGVAGD, the protein stability index is 0.698 ± 0.039.

Sequence DGVSRSHFQCVS registered a protein stability index of 0.708 ± 0.044.

DHLPSPRPRPPP came in with a protein stability index of 0.7295 ± 0.0012.

Take DHSAPIIPMMKV: the protein stability index was 0.6239 ± 0.0058.

Sequence DICYGVALSQVE had a protein stability index of 0.676 ± 0.045.

DIDGKRLLGCWI registered a protein stability index of 0.6632 ± 0.00086.

Sequence DIKKLNKKAKIK gave a protein stability index of 0.777 ± 0.15.

DIRVFFNSREGN had a protein stability index of 0.742 ± 0.022.

Consider DKGTGYIVKRIT, for which the protein stability index was 0.6872 ± 0.0044.

With DKHGELFIVCKV, the protein stability index worked out at 0.54 ± 0.033.

In turn, DKKGRIKIKNRQ yielded a protein stability index of 0.618 ± 0.026.

For DKKKKTKINNKK, the protein stability index was determined as 0.698 ± 0.01.

As for DKWVRDCLTESR, the protein stability index came to 0.691 ± 0.014.

The sequence DLFSALWGEYVL returned a protein stability index of 0.741 ± 0.013.

Turning to DLGQVLSEASAS, the protein stability index was determined as 0.742 ± 0.034.

Sequence DLGRRRVGPKGA registered a protein stability index of 0.717 ± 0.024.

The sequence DLIHLVVIVPMV yielded a protein stability index of 0.554 ± 0.035.
